# T1: human LAG-3 on cells (HEK293-hLAG-3 stable cell line) (human, UniProt P18627 23-525)
# T1 sequence: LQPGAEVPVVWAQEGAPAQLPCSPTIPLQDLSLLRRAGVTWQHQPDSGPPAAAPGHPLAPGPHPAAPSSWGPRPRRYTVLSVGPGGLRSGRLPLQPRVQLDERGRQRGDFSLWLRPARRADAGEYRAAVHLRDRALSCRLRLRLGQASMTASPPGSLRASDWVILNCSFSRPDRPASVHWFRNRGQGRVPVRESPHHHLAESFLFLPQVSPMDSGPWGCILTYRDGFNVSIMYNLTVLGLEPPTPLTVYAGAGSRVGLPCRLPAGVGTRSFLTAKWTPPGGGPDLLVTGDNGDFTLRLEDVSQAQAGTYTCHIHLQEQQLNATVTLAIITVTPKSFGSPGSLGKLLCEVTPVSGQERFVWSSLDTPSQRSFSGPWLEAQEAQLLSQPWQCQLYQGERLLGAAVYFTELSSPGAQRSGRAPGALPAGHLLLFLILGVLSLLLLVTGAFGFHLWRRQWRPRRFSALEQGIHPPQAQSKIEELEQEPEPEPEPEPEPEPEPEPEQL
# B1: 556F6B8 mouse-human chimeric antibody (antibody, V domains shown)
# VH: RVQLKQSGPGLVQPSQSLSITCTVSGFSLIKYGVHWVRQSPGEGLEWLGVIWRGGITDYNAAFMSRLSITKDNSKSQVFFKMNSLQADDTAIYYCAKWDGPLAMDYWGQGTSVTVSS
# VL: DIVMTQSHKFLSTSVGDRVSITCKASQDVGTTVAWYQQKPGQSPKLLIYWASTRHTGVPDRFTGSGSGTDFTLTISNVQSEDLADYFCQQYSSYPYTFGGGTKLEIK
# notes: also called mAb123-556F6B8; 556F8B8
# B2: 405B8H3 mouse-human chimeric antibody (antibody, V domains shown)
# VH: QVQLQQSGAELVRPGASVTLSCKASGYTFTDYEMHWVKQTPVHGLEWIGATDPETGNSAYNQKFKGKAIMTADKSSSTAYMELRSLTSEDSAVYYCISTGWNDWGQGTSLTVSS
# VL: DIKMTQSPSSMYASLGERVTITCKASQDINSYLSWFQQKPGKSPKTLIYRADRLLDGVPSRFSGSGSGQDYSLTISSLEYGDMGIYYCLQYDEFPYTFGGGTKLEIK
# notes: also called mAb103-405B8H3
# How the values were obtained:
# [1] = target: monkey LAG-3 on cells (HEK293-cLAG-3 stable cell line) (monkey); assay: FACS, HEK293-cLAG-3, antibody 1.600 nM
# Chain of monkey LAG-3 on cells (HEK293-cLAG-3 stable cell line) (monkey) (P18627 other isoform, or with tags, fused parts or gaps limits assumed): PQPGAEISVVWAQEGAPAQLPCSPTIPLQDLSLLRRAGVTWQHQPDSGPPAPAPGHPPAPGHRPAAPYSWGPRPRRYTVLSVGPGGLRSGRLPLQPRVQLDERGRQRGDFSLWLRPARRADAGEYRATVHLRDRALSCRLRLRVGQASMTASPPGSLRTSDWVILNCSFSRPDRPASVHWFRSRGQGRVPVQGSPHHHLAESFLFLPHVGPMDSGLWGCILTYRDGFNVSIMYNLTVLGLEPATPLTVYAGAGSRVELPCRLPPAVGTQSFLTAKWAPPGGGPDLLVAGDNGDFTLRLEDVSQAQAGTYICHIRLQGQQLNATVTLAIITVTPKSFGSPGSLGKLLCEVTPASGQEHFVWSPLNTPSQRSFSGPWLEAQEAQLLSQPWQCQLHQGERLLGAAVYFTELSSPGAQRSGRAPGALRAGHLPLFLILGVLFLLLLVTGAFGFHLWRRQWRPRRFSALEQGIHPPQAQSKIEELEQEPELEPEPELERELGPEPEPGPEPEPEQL
# [2] = target: LAG-3-hFc protein (human LAG-3 extracellular region with hFc tag) (human) (UniProt P18627); assay: ELISA, inhibition of LSECtin-His binding to coated LAG-3-hFc, antibody 40.000 nM, replicate 2
# [3] = target: LAG-3-hFc protein (human LAG-3 extracellular region with hFc tag) (human) (UniProt P18627); assay: ELISA, inhibition of LSECtin-His binding to coated LAG-3-hFc, antibody 0.000 nM, replicate 1
# [4] = target: LAG-3-hFc protein (human LAG-3 extracellular region with hFc tag) (human) (UniProt P18627); assay: ELISA, inhibition of LSECtin-His binding to coated LAG-3-hFc, antibody 0.064 nM, replicate 1
# [5] = target: monkey LAG-3 on cells (HEK293-cLAG-3 stable cell line) (monkey); assay: FACS, HEK293-cLAG-3, antibody 0.000 nM
# [6] = target: LAG-3-hFc protein (human LAG-3 extracellular region with hFc tag) (human) (UniProt P18627); assay: ELISA, inhibition of LSECtin-His binding to coated LAG-3-hFc, antibody 200.000 nM, replicate 2
# [7] = target: LAG-3-hFc protein (human LAG-3 extracellular region with hFc tag) (human) (UniProt P18627); assay: FACS, inhibition of LAG-3-hFc binding to MHC II on Raji cells, antibody 200.000 nM
# [8] = target: human LAG-3 on cells (HEK293-hLAG-3 stable cell line) (human) (UniProt P18627); assay: FACS, HEK293-hLAG-3, antibody 8.000 nM
# [9] = target: monkey LAG-3 on cells (HEK293-cLAG-3 stable cell line) (monkey); assay: FACS, HEK293-cLAG-3, antibody 0.013 nM
# [10] = target: human LAG-3 on cells (HEK293-hLAG-3 stable cell line) (human) (UniProt P18627); assay: FACS, HEK293-hLAG-3, antibody 0.064 nM
# [11] = target: LAG-3-hFc protein (human LAG-3 extracellular region with hFc tag) (human) (UniProt P18627); assay: ELISA, inhibition of LSECtin-His binding to coated LAG-3-hFc, antibody 0.000 nM, replicate 2
# [12] = target: LAG-3-hFc protein (human LAG-3 extracellular region with hFc tag) (human) (UniProt P18627); assay: FACS, inhibition of LAG-3-hFc binding to MHC II on Raji cells, antibody 0.274 nM
# [13] = target: monkey LAG-3 on cells (HEK293-cLAG-3 stable cell line) (monkey); assay: FACS, HEK293-cLAG-3, antibody 200.000 nM
# [14] = target: LAG-3-hFc protein (human LAG-3 extracellular region with hFc tag) (human) (UniProt P18627); assay: ELISA, inhibition of LSECtin-His binding to coated LAG-3-hFc, antibody 0.064 nM, replicate 2
# [15] = target: human LAG-3 on cells (HEK293-hLAG-3 stable cell line) (human) (UniProt P18627); assay: FACS, HEK293-hLAG-3, antibody 0.013 nM
# [16] = target: human LAG-3 on cells (HEK293-hLAG-3 stable cell line) (human) (UniProt P18627); assay: FACS, HEK293-hLAG-3, antibody 1.600 nM
# [17] = target: monkey LAG-3 on cells (HEK293-cLAG-3 stable cell line) (monkey); assay: FACS, HEK293-cLAG-3, antibody 0.320 nM
# [18] = target: monkey LAG-3 on cells (HEK293-cLAG-3 stable cell line) (monkey); assay: FACS, HEK293-cLAG-3, antibody 0.064 nM
# [19] = target: human LAG-3 on cells (HEK293-hLAG-3 stable cell line) (human) (UniProt P18627); assay: FACS, HEK293-hLAG-3, antibody 40 nM
# [20] = target: human LAG-3 on cells (HEK293-hLAG-3 stable cell line) (human) (UniProt P18627); assay: FACS, HEK293-hLAG-3, antibody 0.32 nM
# [21] = target: T1, human LAG-3 on cells (HEK293-hLAG-3 …); assay: FACS, HEK293-hLAG-3, antibody 40 nM
# [22] = target: T1, human LAG-3 on cells (HEK293-hLAG-3 …); assay: FACS, HEK293-hLAG-3, antibody 0.064 nM
# [23] = target: T1, human LAG-3 on cells (HEK293-hLAG-3 …); assay: FACS, HEK293-hLAG-3, antibody 0 nM
# [24] = target: T1, human LAG-3 on cells (HEK293-hLAG-3 …); assay: FACS, HEK293-hLAG-3, antibody 40 nM; remark: listed apart in the source
# From the text: A. The binding of antibodies to LAG-3 expressing cells was detected by Flow cytometry (FACS), wherein the method was according to that of Example 5.
molecule,measurement,setting,value
hIgG control (antibody),Mean fluorescence intensity,[1],3.25
same,Inhibition rate (%),[2],-3.5%
same,Inhibition rate (%),[3],3.1%
same,Inhibition rate (%),[4],-26.4%
same,Mean fluorescence intensity,[5],2.86
same,Inhibition rate (%),[6],-2.2%
same,Inhibition rate (%),[7],12.3%
same,Mean fluorescence intensity,[8],3
same,Mean fluorescence intensity,[9],2.87
same,Mean fluorescence intensity,[10],3.1
same,Inhibition rate (%),[11],-3.6%
same,Inhibition rate (%),[12],8.1%
same,Mean fluorescence intensity,[13],2.9
same,Inhibition rate (%),[14],-11.2%
same,Mean fluorescence intensity,[15],3
same,Mean fluorescence intensity,[16],2.7
same,Mean fluorescence intensity,[17],3.13
same,Mean fluorescence intensity,[18],3.04
same,Mean fluorescence intensity,[19],4
same,Mean fluorescence intensity,[20],4
B1,Mean fluorescence intensity,[21],96
same,Mean fluorescence intensity,[22],12
same,Mean fluorescence intensity,[23],4
B2,Mean fluorescence intensity,[24],266
